T1: recombinant human CTLA-4 protein (human, UniProt P16410 36-161)
T1 construct: Recombinant protein used as analyte in SPR/Octet; also called hCTLA-4; CD152
T1 sequence (looked up): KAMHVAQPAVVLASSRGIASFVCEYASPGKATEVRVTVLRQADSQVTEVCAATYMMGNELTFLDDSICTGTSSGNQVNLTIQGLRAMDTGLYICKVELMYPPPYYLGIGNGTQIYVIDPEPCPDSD


Tests used:
[1] = molecular target: T1, recombinant human CTLA-4 protein; test: SPR (Pioneer FE) or Octet (Red96e), 37 C; IgG captured by anti-human Fc or AHC sensor, hCTLA-4 as analyte
From the text: (§1) All values shown in Table 5 are ×10⁻⁹ M. Antibodies were captured on the chip surface using anti-human Fc antibody (SPR) or AHC sensor (Octet).

[2] = molecular target: T2, recombinant mouse CTLA-4 protein (mouse, UniProt P09793 36-161); test: SPR (Pioneer FE) or Octet (Red96e), 37 C; IgG captured by anti-human Fc or AHC sensor, mCTLA-4 as analyte
T2 construct: Recombinant protein used as analyte in SPR/Octet; also called murine CTLA-4; mCTLA-4
From the text: as §1

[3] = molecular target: T2, recombinant mouse CTLA-4 protein; test: SPR (Pioneer FE) or Octet (Red96e), 25 C; IgG captured by anti-human Fc or AHC sensor, mCTLA-4 as analyte
From the text: as §1

[4] = molecular target: T1, recombinant human CTLA-4 protein; test: SPR (Pioneer FE) or Octet (Red96e), 25 C; IgG captured by anti-human Fc or AHC sensor, hCTLA-4 as analyte
From the text: as §1

| Kd [1] [nM] | Kd [2] [nM] | Kd [3] [nM] | Kd [4] [nM] | Binder |
| --- | --- | --- | --- | --- |
| 0.67 | 0.4 | 0.32 | 0.41 | IgG antibody 78-8D2 HC / 78-8 LC (antibody, V domains shown) VH: EVQLVESGGGLVQPGGSLRLSCAASGFTFSSYVMHWVRQAPGKGLEWVSAITWSGRGTYYADSVKGRFTISRDNSKNTLYLQMNSLRAEDTAVYYCARGRLFGLALYGEAFDVWGQGTLVTVSS VL: DIQMTQSPSSLSASVGDRVTITCQASKDISNYLNWYQQKPGKAPKLLIYDASNLETGVPSRFSGSGSGTDFTFTISSLQPEDIATYYCQQFNSFPLTFGQGTKVEIKR |
| 1.5 | 0.23 | 0.18 | 1.6 | IgG antibody 78-24D1V HC / 78-24 LC (antibody, V domains shown) VH: EVQLVESGGGLVQPGGSLRLSCAASGFTFTSYSMHWVRQAPGKGLEWVSGISGSGRSTSYADSVKGRFTISRDNSKNTLYLQMNSLRAEDTAVYYCARDLMAFNLVRAGGFDVWGQGTLVTVSS VL: DIQMTQSPSSLSASVGDRVTITCQASQDISNYLNWYQQKPGKAPKLLIYDASNLETGVPSRFSGSGSGTDFTFTISSLQPEDIATYYCQQGDAWPWTFGQGTKVEIKR |
| 1.3 | 0.27 | 0.19 | 1.4 | IgG antibody 78-24D22V HC / 78-24 LC (antibody, V domains shown) VH: EVQLVESGGGLVQPGGSLRLSCAASGFTFPSYSMHWVRQAPGKGLEWVSGISGSGWSTSYADSVKGRFTISRDNSKNTLYLQMNSLRAEDTAVYYCARDLMAFNLVRAGGFDVWGQGTLVTVSS VL: DIQMTQSPSSLSASVGDRVTITCQASQDISNYLNWYQQKPGKAPKLLIYDASNLETGVPSRFSGSGSGTDFTFTISSLQPEDIATYYCQQGDAWPWTFGQGTKVEIKR |
| 0.39 | 0.27 | 0.27 | 0.39 | IgG antibody 78-8D4 HC / 78-8 LC (antibody, V domains shown) VH: EVQLVESGGGLVQPGGSLRLSCAASGFTFSSYVMHWVRQAPGKGLEWVSAITWSGGGTYYADSVKGRFTISRDNSKNTLYLQMNSLRAEDTAVYYCARGRLFGLVRYGEAFDVWGQGTLVTVSS VL: DIQMTQSPSSLSASVGDRVTITCQASKDISNYLNWYQQKPGKAPKLLIYDASNLETGVPSRFSGSGSGTDFTFTISSLQPEDIATYYCQQFNSFPLTFGQGTKVEIKR |
| – | 0.33 | 0.34 | – | IgG antibody 78-24D17V HC / 78-24 LC (antibody, V domains shown) VH: EVQLVESGGGLVQPGGSLRLSCAASGFTFSSSSMHWVRQAPGKGLEWVSGISGSGGSTSYADSVKGRFTISRDNSKNTLYLQMNSLRAEDTAVYYCARYLMSFNLVRTSWFDVWGQGTLVTVSS VL: DIQMTQSPSSLSASVGDRVTITCQASQDISNYLNWYQQKPGKAPKLLIYDASNLETGVPSRFSGSGSGTDFTFTISSLQPEDIATYYCQQGDAWPWTFGQGTKVEIKR |
| 0.44 | 0.53 | 0.39 | 0.46 | IgG antibody 78-8D22 HC / 78-8 LC (antibody, V domains shown) VH: EVQLVESGGGLVQPGGSLRLSCAASGFTFSSYVMHWVRQAPGKGLEWVSAISWSGSGTYYADSVKGRFTISRDNSKNTLYLQMNSLRAEDTAVYYCARGRLFGLARYGEAFDVWGQGTLVTVSS VL: DIQMTQSPSSLSASVGDRVTITCQASKDISNYLNWYQQKPGKAPKLLIYDASNLETGVPSRFSGSGSGTDFTFTISSLQPEDIATYYCQQFNSFPLTFGQGTKVEIKR |

— patent US20240084011A1 (NANTBIO, published 2024)
